Settings in all cases: remark: other sources report otherwise
Assay [1] addresses recombinant soluble homotrimeric HA of A/Wisconsin/67/05 (H3N2) (Influenza A virus A/Wisconsin/67/2005(H3N2)). Briefly: trimeric HA microarray, transfection supernatant set 5.
For assay [2], the target named is T1, recombinant soluble homotrimeric HA of A/California/4/09 (H1N1) (Influenza A virus A/California/04/2009(H1N1)). The description is as above.
Assay [3] deals with T2, recombinant soluble homotrimeric HA of A/Vietnam/1203/04 (H5N1) (Influenza A virus A/VietNam/1203/2004(H5N1)). Described as above.
Assay [4] deals with T3, recombinant soluble homotrimeric HA of A/Indonesia/5/05 (H5N1) (Influenza A virus A/Indonesia/5/2005(H5N1)). Described as above.
Assay [5] concerns the target T4, recombinant soluble homotrimeric HA of A/Netherlands/219/03 (H7N7) (Influenza A virus A/Netherlands/219/03(H7N7)). Described as above.
The target of assay [6] is recombinant soluble homotrimeric HA of A/Solomon Islands/3/06 (H1N1) (Influenza A virus A/Solomon Islands/3/2006(H1N1)). The assay is described as above.
Assay [7] addresses T5, recombinant soluble homotrimeric HA of A/northern shoveler/California/HKWF115/07 (H6) (Influenza A virus A/northern shoveler/California/HKWF115/2007(H6N1)). Described as above.
For assay [8], the target named is T6, recombinant soluble homotrimeric HA of A/Anhui/1/05 (H5N1) (Influenza A virus A/Anhui/1/2005(H5N1)). The description is as above.
Assay [9] deals with T7, recombinant soluble homotrimeric HA of A/Egypt/3300-NAMRU3/08 (H5N1) (Influenza A virus A/Egypt/3300-NAMRU3/2008(H5N1)). The assay is described as above.
Assay [10] concerns the target recombinant soluble homotrimeric HA of A/chicken/Vietnam/NCVD-016/08 (H5N1) (Influenza A virus A/chicken/Vietnam/NCVD-016/2008(H5N1)). The assay is described as above.
Assay [11] deals with T8, recombinant soluble homotrimeric HA of A/South Carolina/1/18 (H1N1) (Influenza A virus A/South Carolina/1/18 (H1N1)). The description is as above.
Assay [12] concerns the target recombinant soluble homotrimeric HA of A/duck/Yangzhou/02/05 (H8N4) (Influenza A virus A/duck/Yangzhou/02/2005(H8N4)). Described as above.
Assay [13] concerns the target recombinant soluble homotrimeric HA of A/Japan/305/57 (H2N2) (Influenza A virus A/Japan/305/1957(H2N2)). The description is as above.
Assay [14] addresses T1, recombinant soluble homotrimeric HA of …. Kind of assay: trimeric HA microarray, transfection supernatant set 4.
The target in assay [15] is T2, recombinant soluble homotrimeric HA of …. Described as above.
For assay [16], the target named is T3, recombinant soluble homotrimeric HA of …. The description is as above.
The target in assay [17] is recombinant soluble homotrimeric HA of A/Hong Kong/1073/99 (H9N2) (Influenza A virus A/Hong Kong/1073/99 (H9N2)). The assay is described as above.
The target in assay [18] is T4, recombinant soluble homotrimeric HA of …. The assay is described as above.
Assay [19] has as its target T5, recombinant soluble homotrimeric HA of …. The assay is described as above.
Assay [20] addresses T6, recombinant soluble homotrimeric HA of …. The assay is described as above.
Assay [21] addresses T7, recombinant soluble homotrimeric HA of …. Described as above.
Assay [22] deals with T8, recombinant soluble homotrimeric HA of …. The description is as above.
The target in assay [23] is recombinant soluble homotrimeric HA of A/swine/Ontario/01911-2/99 (H4N6) (Influenza A virus A/Swine/Ontario/01911-2/99 (H4N6)). Briefly: trimeric HA microarray, transfection supernatant set 5.

B1: TCN-540 (5060_F05) (antibody, V domains shown)
VH: QVQLVQSGGGVVQPGRSLRLSCAASGFTFSSYAMHWVRQAPGKGLEWVAIISYDGNDQYYTDSVKGRFTISRDSSKVYLQMHRLRPEDTAVYYCAKEFETSGYFHGSFDYWGQGILVTVSS
VL: QSALTQPASVSGSPGQSITISCTGTSSDVGGYNYVSWYQQHPGKAPKLLIYEVTNWPSGVSNRFSGSKSGNTASLTISGLQAEDEADYYCSSYAGSSTWVFGGGTRVTVL
Turning to B1, the Trimeric HA Binding: RLU in [1] was determined as 53000 RLU; in [2], 984 RLU; in assay [3], 42500 RLU; in assay [4] it was 2570 RLU; in assay [5], 4390 RLU; in [6], 1180 RLU. Besides, the Trimeric HA Binding: RLU was found to be 2460 RLU in [7]; 2190 RLU in assay [8]; 15600 RLU in assay [9]; 1510 RLU in assay [10]; 1360 RLU in assay [11]; 6080 RLU in [12]. Moreover, in [13], the Trimeric HA Binding: RLU stood at 47900 RLU.

B2: TCN-539 (5056_A08) (antibody, V domains shown)
VH: QVQLVESGGGVVQPGRSLRLSCAASEITFITYAMHWVRQAPGKGLEWVALISDDGSNKFYADSVKGRFTISRDNSKNTLYLQMNSLRAEDTAAYYCAREGVYFDSGTYRGYFDYWGQETLVTVSS
VL: EIVLTQSPATLSLSPGERATLSCRASQSVSSYLAWYQQKPGQAPRLLIYDASNRATGIPARFSGSGSGTDFTLTISSLEPEDFAVYYCQQRSHWPPITFGQGTRLEIK
Consider B2, for which the Trimeric HA Binding: RLU worked out at 58800 RLU in [1]; 1050 RLU in assay [2]; 53300 RLU in assay [3]; 8950 RLU in assay [4]; 15700 RLU in assay [5]; 871 RLU in [6]. Moreover, the Trimeric HA Binding: RLU in assay [7] was determined as 2860 RLU; in assay [8] it was 3240 RLU; in [10] it was 3500 RLU; in assay [11] it was 5330 RLU; in assay [13] it was 2560 RLU.

B3: TCN-523 (5248_A17) (antibody, V domains shown)
VH: QVQLVQSGAEVKKPGSSVKVSCKASGGSFSNYAFSWVRQAPGQGLEWMGGTIPLLGTTNYAQKFQGRVTISADQFTSTAYMELGSLRSEDTAVYYCTRRKMTTAFDSWGQGTLVTVSS
VL: QPVLTQPPSASASLGASVTLTCTLSSAYSNYKVDWYQQRPGKGPRFVMRVGTGGIVGSKGDGIPDRFSVLGSGLNRYLTIKNIQEEDESDYHCGADHGSGSNFVSPYVFGGGTKLTVL
B3: the Trimeric HA Binding: RLU in assay [14] came to 28800 RLU; in [15] it was 30900 RLU; in [16], 24500 RLU; in assay [17], 24600 RLU; in assay [18], 443 RLU; in [19], 25100 RLU. Further, the values for the Trimeric HA Binding: RLU in assay [20], in [21] and in assay [22] were 48 RLU, 33400 RLU and 23000 RLU, respectively.

B4: TCN-546 (5089_L08) (antibody, V domains shown)
VH: QVQLQQWGAGLLKPSETLSLTCGVYGGSLSDYYWSWIRQPPGKGLEWIGEINHSGGTNYNPSLKRRVTISVDTSKKQFSLKMNSVTAADTAVYYCARGTDPDTEVYCRAGNCAAFDFWGQGTLVTVSS
VL: EIVLTQSPGTLSLSPGERATLSCRASHFVIGRAVAWYQQKPGQAPRLLIYGASSRATGIPDRFSGSGSGTDFTLTISRLETEDFAVFYCQHYGSSPRYAFGQGTKLEIK
Turning to B4, the Trimeric HA Binding: RLU in [1] was 28500 RLU; in [2] it was 1080 RLU; in assay [3], 47100 RLU; in assay [4], 40900 RLU; in assay [5] it was 3740 RLU; in assay [23] it was 4610 RLU. Moreover, the Trimeric HA Binding: RLU amounted to 2430 RLU in assay [7]; 33300 RLU in assay [8]; 53000 RLU in assay [9]; 2940 RLU in assay [10]; 955 RLU in [11]; 11400 RLU in assay [12]. The Trimeric HA Binding: RLU in assay [13] came to 1730 RLU.

B5: TCN-543 (5081_G23) (antibody, V domains shown)
VH: QVHLVQSGAEVRKPGDSVKVSCKTSGYTFSTYPVAWVRQVPGQGLEWMGWISTYNGNTNFAQNFQGRVTLTTDTTTNTAYMEVRSLKFDDTAVYYCARVEGSYRDFWNNQNRFDPWGQGTLVTVSS
VL: SYVLTQPPSVSVAPGQTARISCGGSNIGGKSVHWYQQKPGQAPVLVVYDDSGRPSGIPERFSGSNSGDTATLTISRVEAGDEADYFCQVWDNFGGVFGTGTKVTVL
As to B5, the Trimeric HA Binding: RLU in assay [1] is 37000 RLU; in [2] it was 2340 RLU; in [3], 33100 RLU; in assay [4] it was 1830 RLU; in assay [5] it was 12900 RLU; in assay [6] it was 43500 RLU. Besides, the Trimeric HA Binding: RLU in [23] came out at 2870 RLU; in assay [7] it was 2510 RLU; in assay [8], 2630 RLU; in assay [9], 17600 RLU; in assay [10] it was 5880 RLU; in [11] it was 28300 RLU. Further, the Trimeric HA Binding: RLU came out at 13100 RLU in assay [12] and 2780 RLU in [13].

B6: TCN-538 (3206_O17) (antibody, V domains shown)
VH: QITLKESGPTLVKPTQTLTLTCVFSGFSLSITGVRVGWIRQPPGKALEWLALISWDDEKHYSPSLQSRLTITKDTSKNQVVLTMTNLDPVDTATYYCARSTDRGHVLRYFGWMLPGDAFDVWGQGTMVTVSS
VL: DIVMTQSPDFLPVSLGERATINCKSSQRVLYSSNNKNYLAWYQLKPGQPPKLIIYWASTRESGVPDRFSGSGSGTEFTLTISSLQAEDVAVYYCQQYYSRPYTFGQGTKLEIK
On to B6, for which the Trimeric HA Binding: RLU turned out to be 16000 RLU in assay [2]; 52400 RLU in assay [3]; 13700 RLU in assay [4]; 4370 RLU in assay [5]; 1960 RLU in assay [6]; 3350 RLU in assay [23]. In addition, the Trimeric HA Binding: RLU in assay [7] is 8900 RLU; in [9] it was 41000 RLU; in assay [10], 2950 RLU; in [11] it was 8430 RLU; in assay [12], 4060 RLU; in assay [13], 6620 RLU.

For the origin of these results see patent US20150086555A1.
